Target: wild-type EGFR expressed on cells (human) (UniProt P00533)
Experiment: flow cytometry, A431 cells

MFI: 185
Substance: FITC-conjugated goat anti-mouse Fc specific secondary antibody
